Measurements reported in PMC2141641 (The Journal of Cell Biology, 1997).

B1: GST-CD36 fusion protein FP93-120 (domain or fragment, human, UniProt P16671 93-120, looked up)
chain: YRVRFLAKENVTQDAEDNTVSFLQPNGA

Key:
Assay in all cases: radioligand binding
[1] = target: CD36 expressed on Bowes melanoma cells stably transfected with human CD36 cDNA (human, UniProt P16671 1-472)
[2] = target: B1
Thrombospondin-1 = Thrombospondin-1 (human, UniProt P07996 19-1170, 125I label (radiolabeled TSP-1) in the binding assays)
Thrombospondin-1, sequence (P07996 19-1170): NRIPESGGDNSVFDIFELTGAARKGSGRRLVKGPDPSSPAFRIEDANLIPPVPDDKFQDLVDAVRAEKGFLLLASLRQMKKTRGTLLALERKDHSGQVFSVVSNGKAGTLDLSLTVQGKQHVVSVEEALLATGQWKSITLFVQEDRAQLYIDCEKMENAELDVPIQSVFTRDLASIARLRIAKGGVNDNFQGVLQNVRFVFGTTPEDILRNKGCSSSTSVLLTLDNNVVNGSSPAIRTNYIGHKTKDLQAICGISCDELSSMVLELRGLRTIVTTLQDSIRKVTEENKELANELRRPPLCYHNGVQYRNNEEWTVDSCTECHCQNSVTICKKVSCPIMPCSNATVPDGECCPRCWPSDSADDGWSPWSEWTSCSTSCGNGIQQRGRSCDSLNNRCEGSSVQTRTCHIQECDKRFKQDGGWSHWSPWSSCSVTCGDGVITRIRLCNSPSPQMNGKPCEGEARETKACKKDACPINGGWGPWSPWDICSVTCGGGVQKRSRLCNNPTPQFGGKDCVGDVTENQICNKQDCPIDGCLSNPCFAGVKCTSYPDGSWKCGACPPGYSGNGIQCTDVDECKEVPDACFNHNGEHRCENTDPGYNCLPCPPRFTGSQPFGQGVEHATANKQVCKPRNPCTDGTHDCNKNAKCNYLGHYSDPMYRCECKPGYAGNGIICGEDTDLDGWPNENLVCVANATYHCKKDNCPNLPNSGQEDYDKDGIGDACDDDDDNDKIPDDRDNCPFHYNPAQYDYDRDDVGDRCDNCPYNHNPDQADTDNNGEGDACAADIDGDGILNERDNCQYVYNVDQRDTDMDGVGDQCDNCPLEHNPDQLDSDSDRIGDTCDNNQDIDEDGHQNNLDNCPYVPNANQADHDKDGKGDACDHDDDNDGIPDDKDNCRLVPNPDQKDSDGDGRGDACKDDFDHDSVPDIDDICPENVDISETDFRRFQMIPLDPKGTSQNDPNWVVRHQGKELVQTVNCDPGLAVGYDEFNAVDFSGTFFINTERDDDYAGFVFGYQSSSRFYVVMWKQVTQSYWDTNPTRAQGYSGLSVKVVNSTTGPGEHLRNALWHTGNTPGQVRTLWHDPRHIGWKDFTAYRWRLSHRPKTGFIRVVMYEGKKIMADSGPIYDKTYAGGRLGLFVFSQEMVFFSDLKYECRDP

CD36 expressed on Bowes melanoma cells stably transfected with human CD36 cDNA, sequence (P16671 whole entry): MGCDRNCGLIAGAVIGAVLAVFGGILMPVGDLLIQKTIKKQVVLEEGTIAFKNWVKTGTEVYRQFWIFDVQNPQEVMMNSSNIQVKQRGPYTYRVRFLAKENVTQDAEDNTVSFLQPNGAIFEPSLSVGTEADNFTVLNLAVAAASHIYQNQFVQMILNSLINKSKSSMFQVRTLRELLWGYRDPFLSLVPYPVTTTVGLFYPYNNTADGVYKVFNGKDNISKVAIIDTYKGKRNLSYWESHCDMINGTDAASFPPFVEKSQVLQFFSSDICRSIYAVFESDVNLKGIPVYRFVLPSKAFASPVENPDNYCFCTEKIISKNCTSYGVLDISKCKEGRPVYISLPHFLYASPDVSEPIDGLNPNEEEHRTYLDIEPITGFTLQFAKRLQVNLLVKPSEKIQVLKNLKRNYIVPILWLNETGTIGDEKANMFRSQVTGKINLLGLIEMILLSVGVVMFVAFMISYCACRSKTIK

Row | Binder | IC50 [1] [µM] | binding result [2] | binding result (Thrombospondin-1)
1 | SPWDIASVTAGGGVQKRSK [TSP-1 peptide Mal III] | 8.6 ± 1.12 | binds | –
2 | NGVQYRN [TSP-1 peptide Col overlap] | 30.1 ± 8.88 | – | –
3 | GST-CD36 fusion protein FP67-157 (domain or fragment, human, UniProt P16671 67-157, looked up) IFDVQNPQEVMMNSSNIQVKQRGPYTYRVRFLAKENVTQDAEDNTVSFLQPNGAIFEPSLSVGTEADNFTVLNLAVAAASHIYQNQFVQMI | – | – | binds
4 | B1 | – | – | binds
